For one substance, percent displacement of labeled 60S by 5-fold unlabeled 60S results are on record in article PMC4613909.

The test has as its target Artemia salina 40S ribosomal subunit (Artemia salina). In words: iRIA (in vitro Ribosomes Interaction Assay, microwell solid-phase binding); 40S immobilised, labeled 60S displaced by 5-fold unlabeled 60S; room temperature, 10 minutes.

In turn, “Artemia salina 60S ribosomal subunit (mature) (complex)” had a percent displacement of labeled 60S by 5-fold unlabeled 60S of 50%.
